# Paper PMC2174947, “Transcriptional regulation of human eosinophil RNases by an evolutionary- conserved sequence motif in primate genome”
# T1: GST-MAZ (UniProt P56270 1-477)
# T1 sequence: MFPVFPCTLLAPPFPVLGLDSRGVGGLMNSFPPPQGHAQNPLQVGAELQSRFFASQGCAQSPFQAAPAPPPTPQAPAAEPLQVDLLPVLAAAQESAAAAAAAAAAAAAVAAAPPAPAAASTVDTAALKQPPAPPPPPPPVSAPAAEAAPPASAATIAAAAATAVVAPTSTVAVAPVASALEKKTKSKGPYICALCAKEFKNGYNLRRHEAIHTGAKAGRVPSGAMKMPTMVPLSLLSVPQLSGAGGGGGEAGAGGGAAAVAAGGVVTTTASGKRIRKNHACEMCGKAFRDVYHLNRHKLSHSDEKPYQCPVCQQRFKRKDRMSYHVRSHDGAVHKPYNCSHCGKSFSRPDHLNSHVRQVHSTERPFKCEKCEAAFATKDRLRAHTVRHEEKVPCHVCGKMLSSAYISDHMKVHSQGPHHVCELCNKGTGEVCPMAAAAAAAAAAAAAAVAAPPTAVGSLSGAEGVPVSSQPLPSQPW
# Target: T1, GST-MAZ
# Test: EMSA; EMSA: 10 mM Tris-HCl pH 7.5, 50 mM NaCl, 5 mM MgCl2, 1 mM EDTA, 10% glycerol, 1 ug poly(dI-dC), 30 C 30 min; DAPA: 20 mM HEPES pH 7.6, 10 mM (NH4)2SO4, 1 mM EDTA, 1 mM DTT, 1% Tween 20, 100 mM KCl, 4 C
# Conditions: protein: recombinant; label: 32P 5' end; blunt
binder,measurement,value
wt 34-nt EMSA probe (dsDNA) DNA 1: GCCAAGAGCCAGACCCTCCCTCTGGGCTCTGCTGGCCCA DNA 2: TGGGCCAGCAGAGCCCAGAGGGAGGGTCTGGCTCTTGGC,binding result,binds
